Results on one molecule are retold here after publication PMC5469197, “ANGUSTIFOLIA, a Plant Homolog of CtBP/BARS Localizes to Stress Granules and Regulates Their Formation” (Frontiers in Plant Science, 2017).

This assay deals with T1, …ONALLY CONTROLLED TUMOR PROTEIN (TCTP), Prot-A fusion (Arabidopsis thaliana, UniProt P31265 1-168).
T1 construct: Translationally controlled tumor protein, Arabidopsis thaliana, AT3G16640; CDS amplified from Col-0 cDNA; source: HEK293TN cells, transfected; not shown: Protein A (Staphylococcus aureus), N-terminal, kept
T1 sequence (looked up): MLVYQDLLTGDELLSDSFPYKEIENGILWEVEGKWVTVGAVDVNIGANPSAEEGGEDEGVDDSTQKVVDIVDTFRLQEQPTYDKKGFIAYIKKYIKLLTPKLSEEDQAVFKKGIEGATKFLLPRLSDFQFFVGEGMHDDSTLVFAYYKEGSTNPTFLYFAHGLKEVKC
As to the kind of experiment: co-IP; LUMIER in HEK293TN cells: Prot-A fusion co-transfected with Renilla luciferase fusion (AN always the luciferase fusion with the interactors); luciferase activity before (input) and after pulldown; percentage pulldown = pulldown/input x 100; empty vectors as negative control; positive if more than two times the background. As to conditions: partners not purified.

B1: AN, Renilla luciferase fusion (LUMIER) (natural protein, Arabidopsis thaliana, UniProt O23702 1-636, looked up)
chain: MSKIRSSATMPHRDQPSPASPHVVTLNCIEDCALEQDSLAGVAGVEYVPLSRIADGKIESATAVLLHSLAYLPRAAQRRLRPHQLILCLGSADRAVDSTLAADLGLRLVHVDTSRAEEIADTVMALILGLLRRTHLLSRHALSASGWLGSLQPLCRGMRRCRGMVLGIVGRSVSARYLASRSLAFKMSVLYFDVPEGDEERIRPSRFPRAARRMDTLNDLLAASDVISLHCALTNDTVQILNAECLQHIKPGAFLVNTGSCQLLDDCAVKQLLIDGTIAGCALDGAEGPQWMEAWVKEMPNVLILPRSADYSEEVWMEIREKAISILHSFFLDGVIPSNTVSDEEVEESEASEEEEQSPSKHEKLAIVESTSRQQGESTLTSTEIVRREASELKESLSPGQQHVSQNTAVKPEGRRSRSGKKAKKRHSQQKYMQKTDGSSGLNEESTSRRDDIAMSDTEEVLSSSSRCASPEDSRSRKTPLEVMQESSPNQLVMSSKKFIGKSSELLKDGYVVALYAKDLSGLHVSRQRTKNGGWFLDTLSNVSKRDPAAQFIIAYRNKDTVGLRSFAAGGKLLQINRRMEFVFASHSFDVWESWSLEGSLDECRLVNCRNSSAVLDVRVEILAMVGDDGITRWID
notes: ANGUSTIFOLIA (AN), Arabidopsis thaliana, AT1G01510; CDS amplified from Col-0 cDNA; in the dimerisation test the second copy must have been the N-terminal protein A fusion (surmised from the LUMIER format); also called wild-type AN; source: HEK293TN cells, transfected; not shown: Renilla reniformis luciferase, N-terminal, kept
Take B1: the “fold change from background” value is 3.12 fold and the percentage pulldown worked out at 0.28%.
